Where a chain is given by its changes, count along the chain named. Numbers in names are those of the source. Values belong to the binder of their own block, whether it stands above or below them.
B1: PPARα-LBD D371A (domain or fragment, human, UniProt Q07869 196-468, looked up)
chain: EDSETADLKSLAKRIYEAYLKNFNMNKVKARVILSGKASNNPPFVIHDMETLCMAEKTLVAKLVANGIQNKEAEVRIFHCCQCTSVETVTELTEFAKAIPGFANLDLNDQVTLLKYGVYEAIFAMLSSVMNKDGMLVAYGNGFITREFLKSLRKPFCDIMEPKFDFAMKFNALELADSDISLFVAAIICCGDRPGLLNVGHIEKMQEGIVHVLRLHLQSNHPDDIFLFPKLLQKMADLRQLVTEHAQLVQIIKKTESDAALHPLLQEIYRDMY
notes: also called PPARα M2; source: E. coli BL21 (DE3)-CodonPlus, purified
B2: PPARγ-ligand binding domain (amino acids 204–477) (domain or fragment, human, UniProt P37231-2 204-477, looked up)
chain: LNPESADLRALAKHLYDSYIKSFPLTKAKARAILTGKTTDKSPFVIYDMNSLMMGEDKIKFKHITPLQEQSKEVAIRIFQGCQFRSVEAVQEITEYAKSIPGFVNLDLNDQVTLLKYGVHEIIYTMLASLMNKDGVLISEGQGFMTREFLKSLRKPFGDFMEPKFEFAVKFNALELDDSDLAIFIAVIILSGDRPGLLNVKPIEDIQDNLLQALELQLKLNHPESSQLFAKLLQKMTDLRQIVTEHVQLLQVIKKTETDMSLHPLLQEIYKDLY
modifications: biotinylated for biolayer interferometry; 15N-labeled for NMR
notes: The His tag is used for capture in the pulldown; also called PPARγ-LBD; wild-type PPARγ; source: E. coli BL21 (DE3)-CodonPlus, purified; not shown: His6, N-terminal, kept
B3: PPARγ-LBD D380A (domain or fragment, human, UniProt P37231-2 204-477, looked up)
chain: B2 chain with D177A
notes: also called PPARγ M2; source: E. coli BL21 (DE3)-CodonPlus, purified
B4: PPARγ-LBD L311G/N312G (domain or fragment, human, UniProt P37231-2 204-477, looked up)
chain: B2 chain with L108G, N109G
notes: also called PPARγ M1; source: E. coli BL21 (DE3)-CodonPlus, purified
B5: PPARα-ligand binding domain (amino acids 196–468) (domain or fragment, human, UniProt Q07869 196-468, looked up)
chain: B1 chain with A176D
modifications: biotinylated for biolayer interferometry; 15N-labeled for NMR
notes: The His tag is used for capture in the pulldown; also called PPARα-LBD; wild-type PPARα; source: E. coli BL21 (DE3)-CodonPlus, purified; not shown: His6, N-terminal, kept
B6: 9-cis-retinoic acid receptor α-ligand binding domain (amino acids 196–435) (domain or fragment, human, UniProt P19793 223-462, looked up)
chain: TSSANEDMPVERILEAELAVEPKTETYVEANMGLNPSSPNDPVTNICQAADKQLFTLVEWAKRIPHFSELPLDDQVILLRAGWNELLIASFSHRSIAVKDGILLATGLHVHRNSAHSAGVGAIFDRVLTELVSKMRDMQMDKTELGCLRAIVLFNPDSKGLSNPAEVEALREKVYASLEAYCKHKYPEQPGRFAKLLLRLPALRSIGLKCLEHLFFFKLIGDTPIDTFLMEMLEAPHQMT
notes: also called RXRα-LBD; source: E. coli BL21 (DE3)-CodonPlus, purified

Legend:
Details in all cases: both partners purified
[1] = biological target: B5; assay: BLI; Octet Red 96; 50 μg/ml biotinylated PPARα-LBD or PPARγ-LBD (or their mutants) immobilised on streptavidin biosensors; analyte β-arrestin-1, βarr1M or peptides in solution (single 2 μM or serial dilutions, β-arrestin-1 0.5–32 μM); 25 °C; 2:1 heterogeneous ligand model and steady-state analysis
[2] = biological target: B2; assay: as above
[3] = biological target: B5; assay: as above; remark: listed apart in the source
[4] = biological target: B2; assay: as above; remark: listed apart in the source
[5] = biological target: T1, β-arrestin-1 (recombinant rattus β-arrestin-1) (rat, UniProt P29066 1-418); assay: as above
T1 construct: β-arrestin-1, rat (rattus), recombinant; also called βarr1; wild-type β-arrestin-1

[6] = biological target: T1, β-arrestin-1 (recombinant rattus …); assay: as above; remark: listed apart in the source
[7] = biological target: T2, β-arrestin-1 double mutant with L100A and L104A (rat, UniProt P29066 1-418, L100A | L104A); assay: as above
T2 construct: β-arrestin-1 with L100A and L104A; also called βarr1M; source: purified

[8] = biological target: B5; assay: BLI; RXRα-LBD with PPARα/γ-LBD; the tables and the methods name PPAR-LBD as ligand and RXRα-LBD as analyte, the legend of Fig. 2e,f says 50 μg/ml RXRα-LBD loaded on SAs with serial dilutions of PPARα/γ-LBD; 25 °C; 2:1 heterogeneous ligand model and steady-state analysis
[9] = biological target: B2; assay: as above
[10] = biological target: B5; assay: BLI; competition: PPARα/γ-LBD and β-arrestin-1 with or without increasing amounts of RXRα-LBD (Supplementary Fig. 5b,c)
[11] = biological target: B2; assay: as above

T1 sequence (P29066 whole entry): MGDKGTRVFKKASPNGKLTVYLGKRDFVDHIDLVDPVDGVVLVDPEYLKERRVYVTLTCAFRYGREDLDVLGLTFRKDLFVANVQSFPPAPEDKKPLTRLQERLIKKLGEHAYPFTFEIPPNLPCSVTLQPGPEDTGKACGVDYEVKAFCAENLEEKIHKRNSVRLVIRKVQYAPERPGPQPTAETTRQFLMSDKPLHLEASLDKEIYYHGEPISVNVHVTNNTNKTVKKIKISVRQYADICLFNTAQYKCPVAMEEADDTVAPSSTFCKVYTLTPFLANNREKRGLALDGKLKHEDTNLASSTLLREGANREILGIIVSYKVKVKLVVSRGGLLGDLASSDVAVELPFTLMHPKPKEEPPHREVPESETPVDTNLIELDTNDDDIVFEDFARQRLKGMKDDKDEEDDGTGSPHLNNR
T2 sequence (P29066 whole entry L100A/L104A): as the sequence (P29066 whole entry) above, with L100A, L104A counted along it

KD1 (2:1 HL model) [1]: 42 µM | KD2 (2:1 HL model) [1]: 60.3 µM | Kd [1]: 56000 nM | koff1 (2:1 HL model) [1]: 0.000907 S^−1 | koff2 (2:1 HL model) [1]: 0.161 S^−1 | kon1 (2:1 HL model) [1]: 21.6 M^−1S^−1 | kon2 (2:1 HL model) [1]: 2660 M^−1S^−1 | KD1 (2:1 HL model) [2]: 557 µM | KD2 (2:1 HL model) [2]: 521 µM | Kd [2]: 560000 nM | koff1 (2:1 HL model) [2]: 0.00323 S^−1 | koff2 (2:1 HL model) [2]: 0.132 S^−1 | kon1 (2:1 HL model) [2]: 5.8 M^−1S^−1 | kon2 (2:1 HL model) [2]: 2.53 M^−1S^−1 | maximum response [3]: 0.27 nm | maximum response [4]: 0.22 nm
Binder: PAPEDKKPLTRLQERLIKKLG [synthetic β-arrestin-1 peptide harboring the LQERLIKKL sequence]

Binder: B1
Kd [5]: 4100 nM

Binder: B2
Kd [6]: 1400 nM

Binder: B3
Kd [6]: 1500 nM

Binder: B4
Kd [6]: 1900 nM

Binder: B5
Kd [7]: 3900 nM | Kd [5]: 3600 nM

Binder: B6
Kd [8]: 29 nM | Kd [9]: 71 nM | IC50 [10]: 880 nM | IC50 [11]: 850 nM

Reference: article PMC4908412, “β-arrestin-1 contributes to brown fat function and directly interacts with PPARα and PPARγ” (Scientific Reports, 2016)
